# From patent WO2017055393A1
# Columns and labels:
# [1] = biological target: human Tim-3 (T cell Immunoglobulin- and Mucin domain-containing molecule 3) (human) (UniProt Q8TDQ0); experiment: FACS, 10 ug/ml PE-labeled antibody on Kasumi-1 cells; geom. mean MFI sample / isotype control
# [2] = biological target: human Tim-3 (T cell Immunoglobulin- and Mucin domain-containing molecule 3) (human) (UniProt Q8TDQ0); experiment: FACS, 10 ug/ml PE-labeled antibody on Karpas-299 cells; geom. mean MFI sample minus isotype control
# [3] = biological target: human Tim-3 (T cell Immunoglobulin- and Mucin domain-containing molecule 3) (human) (UniProt Q8TDQ0); experiment: FACS, 10 ug/ml PE-labeled antibody on Karpas-299 cells; geom. mean MFI sample / isotype control
# [4] = biological target: human Tim-3 (T cell Immunoglobulin- and Mucin domain-containing molecule 3) (human) (UniProt Q8TDQ0); experiment: FACS, 10 ug/ml PE-labeled antibody on CMK cells; geom. mean MFI sample / isotype control
# [5] = biological target: human Tim-3 (T cell Immunoglobulin- and Mucin domain-containing molecule 3) (human) (UniProt Q8TDQ0); experiment: FACS, 10 ug/ml PE-labeled antibody on Kasumi-1 cells; geom. mean MFI sample minus isotype control
# [6] = biological target: human Tim-3 (T cell Immunoglobulin- and Mucin domain-containing molecule 3) (human) (UniProt Q8TDQ0); experiment: FACS, 10 ug/ml PE-labeled antibody on EOL-1 cells (24h pre-treated with 10 ng/ml PMA); geom. mean MFI sample minus isotype control
# [7] = biological target: human Tim-3 (T cell Immunoglobulin- and Mucin domain-containing molecule 3) (human) (UniProt Q8TDQ0); experiment: FACS, 10 ug/ml PE-labeled antibody on Pfeiffer cells; geom. mean MFI sample minus isotype control
# [8] = biological target: human Tim-3 (T cell Immunoglobulin- and Mucin domain-containing molecule 3) (human) (UniProt Q8TDQ0); experiment: FACS, 10 ug/ml PE-labeled antibody on RPMI-8226 cells; geom. mean MFI sample / isotype control
# [9] = biological target: human Tim-3 (T cell Immunoglobulin- and Mucin domain-containing molecule 3) (human) (UniProt Q8TDQ0); experiment: FACS, 10 ug/ml PE-labeled antibody on EOL-1 cells (24h pre-treated with 10 ng/ml PMA); geom. mean MFI sample / isotype control
# [10] = biological target: human Tim-3 (T cell Immunoglobulin- and Mucin domain-containing molecule 3) (human) (UniProt Q8TDQ0); experiment: FACS, 10 ug/ml PE-labeled antibody on TF-1 cells; geom. mean MFI sample / isotype control
# [11] = biological target: human Tim-3 (T cell Immunoglobulin- and Mucin domain-containing molecule 3) (human) (UniProt Q8TDQ0); experiment: FACS, 10 ug/ml PE-labeled antibody on KG-1 cells; geom. mean MFI sample / isotype control
# [12] = biological target: human Tim-3 (T cell Immunoglobulin- and Mucin domain-containing molecule 3) (human) (UniProt Q8TDQ0); experiment: FACS, 10 ug/ml PE-labeled antibody on SR cells; geom. mean MFI sample minus isotype control
# [13] = biological target: human Tim-3 (T cell Immunoglobulin- and Mucin domain-containing molecule 3) (human) (UniProt Q8TDQ0); experiment: FACS, 10 ug/ml PE-labeled antibody on KG-1 cells; geom. mean MFI sample minus isotype control
# [14] = biological target: human Tim-3 (T cell Immunoglobulin- and Mucin domain-containing molecule 3) (human) (UniProt Q8TDQ0); experiment: FACS, 10 ug/ml PE-labeled antibody on CMK cells; geom. mean MFI sample minus isotype control
# [15] = biological target: human Tim-3 (T cell Immunoglobulin- and Mucin domain-containing molecule 3) (human) (UniProt Q8TDQ0); experiment: FACS, 10 ug/ml PE-labeled antibody on RPMI-8226 cells; geom. mean MFI sample minus isotype control
# [16] = biological target: human Tim-3 (T cell Immunoglobulin- and Mucin domain-containing molecule 3) (human) (UniProt Q8TDQ0); experiment: FACS, 10 ug/ml PE-labeled antibody on TF-1 cells; geom. mean MFI sample minus isotype control
# [17] = biological target: human Tim-3 (T cell Immunoglobulin- and Mucin domain-containing molecule 3) (human) (UniProt Q8TDQ0); experiment: FACS, 10 ug/ml PE-labeled antibody on SR cells; geom. mean MFI sample / isotype control
# [18] = biological target: human Tim-3 (T cell Immunoglobulin- and Mucin domain-containing molecule 3) (human) (UniProt Q8TDQ0); experiment: FACS, 10 ug/ml PE-labeled antibody on Pfeiffer cells; geom. mean MFI sample / isotype control
# Chain of human Tim-3 (T cell Immunoglobulin- and Mucin domain-containing molecule 3) (human) (Q8TDQ0 22-301): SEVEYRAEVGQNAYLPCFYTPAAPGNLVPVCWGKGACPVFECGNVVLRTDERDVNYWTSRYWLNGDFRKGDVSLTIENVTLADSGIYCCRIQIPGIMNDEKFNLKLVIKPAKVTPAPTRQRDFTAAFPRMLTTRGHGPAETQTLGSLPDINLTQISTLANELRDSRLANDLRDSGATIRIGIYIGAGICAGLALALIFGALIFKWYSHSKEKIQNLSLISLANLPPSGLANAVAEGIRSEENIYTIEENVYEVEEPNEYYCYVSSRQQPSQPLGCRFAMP
substance,measurement,setting,value
"PE labeled anti-TIM3 (clone 344823, R&D) (antibody)",RFI (ratio of specific binding),[1],4 RFI
same,MFI (specific binding),[2],247 MFI
same,RFI (ratio of specific binding),[3],3 RFI
same,RFI (ratio of specific binding),[4],5 RFI
same,MFI (specific binding),[5],164 MFI
same,MFI (specific binding),[6],207 MFI
same,MFI (specific binding),[7],3610 MFI
same,RFI (ratio of specific binding),[8],23 RFI
same,RFI (ratio of specific binding),[9],2 RFI
same,RFI (ratio of specific binding),[10],3 RFI
same,RFI (ratio of specific binding),[11],5 RFI
same,MFI (specific binding),[12],1050 MFI
same,MFI (specific binding),[13],363 MFI
same,MFI (specific binding),[14],384 MFI
same,MFI (specific binding),[15],1790 MFI
same,MFI (specific binding),[16],229 MFI
same,RFI (ratio of specific binding),[17],19 RFI
same,RFI (ratio of specific binding),[18],51 RFI
